From patent publication US20100022006, “GAMMA SATELLITE INSULATOR SEQUENCES AND THEIR USE IN PREVENTING GENE SILENCING” (THE GOVT. OF THE USA AS REPRESENTED BY THE SECRETA, published 2010)
Residue numbers refer to the chain shown, from its start.

T1: CTCF 11 ZF DNA binding domain (UniProt P49711 P49711:266-577)
T1 sequence: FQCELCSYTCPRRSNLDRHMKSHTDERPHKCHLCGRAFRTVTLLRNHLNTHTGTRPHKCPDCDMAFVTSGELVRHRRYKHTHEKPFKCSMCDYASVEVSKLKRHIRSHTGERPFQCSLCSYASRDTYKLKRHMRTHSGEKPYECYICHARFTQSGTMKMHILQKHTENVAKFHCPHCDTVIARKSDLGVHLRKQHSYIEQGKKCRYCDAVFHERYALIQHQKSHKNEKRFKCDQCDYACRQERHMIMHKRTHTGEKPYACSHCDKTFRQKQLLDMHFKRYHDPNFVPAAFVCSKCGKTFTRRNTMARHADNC

B1: gamma-satellite 8 fragment 11 (monomer 8) (dsDNA)
DNA 1: CGAAAATGGGGCCACTGGGTGGCCTGAACGAGCCAAAGGGACTCAGGGTGACACTGAGG
DNA 2: CCTCAGTGTCACCCTGAGTCCCTTTGGCTCGTTCAGGCCACCCAGTGGCCCCATTTTCG
B2: SssI-methylated gamma-satellite 8 fragment (dsDNA)
DNA 1: B1 DNA 1
DNA 2: B1 DNA 2
modifications: 5mC at CpG (SssI)
B3: gamma-satellite 8 fragment 8 (monomer 6) (dsDNA)
DNA 1: AGACAACAGGGCGGCTGGATGGCATGGGCCGATCGTAGGAACCCAGGGAGACATTGAGG
DNA 2: CCTCAATGTCTCCCTGGGTTCCTACGATCGGCCCATGCCATCCAGCCGCCCTGTTGTCT
B4: gamma-satellite 8 monomer 8 WT-8 core (dsDNA)
DNA 1: CGAAAATGGGGCCACTGGGTGGCCTGAACGAGCCAAAGGGACTCAGGGTGACACT
DNA 2: AGTGTCACCCTGAGTCCCTTTGGCTCGTTCAGGCCACCCAGTGGCCCCATTTTCG
B5: gamma-satellite 8 monomer 8 Mu2 (dsDNA)
DNA 1: B4 DNA 1 with G18A, C23T, C24T, C29T
DNA 2: B4 DNA 2 with G27A, G32A, G33A, C38T
B6: gamma-satellite 8 monomer 8 Mu1 (dsDNA)
DNA 1: B4 DNA 1 with G17A, G18A, G19A, C23T
DNA 2: B4 DNA 2 with G33A, C37T, C38T, C39T
B7: gamma-satellite 8 monomer 8 Mu3 (dsDNA)
DNA 1: B4 DNA 1 with C12T, C15T, G17A, C23T, C29T
DNA 2: B4 DNA 2 with G27A, G33A, C39T, G41A, G44A
B8: gamma-satellite 8 fragment 5 (monomer 4) (dsDNA)
DNA 1: CAAAAACAAGGCCGCAGGGTGGCGTGGGCGGGCCGCAGGGACTCAGGTGGAAATTGTGG
DNA 2: CCACAATTTCCACCTGAGTCCCTGCGGCCCGCCCACGCCACCCTGCGGCCTTGTTTTTG
B9: gamma-satellite 8 fragment 6 (monomer 5) (dsDNA)
DNA 1: CAAAAACAGTGCCGCAGTGTGGCCTGGGCGGGCCACAGGGACTCAGGGAGACGTTGAGG
DNA 2: CCTCAACGTCTCCCTGAGTCCCTGTGGCCCGCCCAGGCCACACTGCGGCACTGTTTTTG
B10: gamma-satellite 8 fragment 10 (monomer 7) (dsDNA)
DNA 1: TGAAAACAGGGAGGCAGGGTGGCATGGCCAGGCCGCAGGGACTATGGTGGACATTGTGG
DNA 2: CCACAATGTCCACCATAGTCCCTGCGGCCTGGCCATGCCACCCTGCCTCCCTGTTTTCA

How the values were obtained:
[1] = molecular target: T1, CTCF 11 ZF DNA binding domain; test: EMSA; among strongest binding; PBS, Mg, Zn, poly(dI-dC), room temperature; ~250 bp probe containing the monomer; conditions: tags: pET16b-11ZF construct, TnT reticulocyte lysate (Promega); label: 32P
Description: (§1) Gamma-satellite monomers from human chromosome X and Y were PCR amplified from genomic DNA, cloned into TA vector and sequenced before their analysis by electrophoretic mobility gel-shift assay (EMSA). Binding reactions were carried out in buffer containing standard PBS with 5 μM MgCl₂, 0.1 μM ZnSO4, 1 μM DTT, 0.1% NP40, and 10% glycerol in the presence of poly(deoxyinosinic-deoxy-CMP) and salmon sperm DNA. Reaction mixtures of 20 μL final volume were incubated for 30 minutes at room temperature and then analyzed on 5% nondenaturing gel using polyacrylamide gel electrophoresis (PAGE) in 0.5×TBE buffer. For EMSA with in vitro methylated DNA probes, treatment with the SssI-methylase was done as previously described for CTCF-binding fragments DMD4 and DMD7 of the H19 ICR (Kanduri et al., Curr. Biol., 10:853-856, 2000). The extent of methylation was verified by digestion overnight with Sau96I restriction endonuclease. Methylation interference analysis was carried out as described previously (Filippova et al., 1996; ibid).
(§2) Electrophoretic mobility shift assays (EMSA) were performed. A set of overlapping fragments corresponding to an 1′-mer of the human gamma 8, were radiolabeled and incubated with the in vitro translated 11 ZF DNA binding domain of the CTCF protein. […] None of 11 alpha-satellite monomers analyzed bound the CTCF protein in vitro.

[2] = molecular target: Luciferase (in vitro translated control) (UniProt P08659 P08659:1-550); test: EMSA; negative control lysate; conditions: tags: Luciferase T7 control DNA (Promega); label: 32P
Chain of Luciferase (in vitro translated control) (P08659 whole entry, one chain of several): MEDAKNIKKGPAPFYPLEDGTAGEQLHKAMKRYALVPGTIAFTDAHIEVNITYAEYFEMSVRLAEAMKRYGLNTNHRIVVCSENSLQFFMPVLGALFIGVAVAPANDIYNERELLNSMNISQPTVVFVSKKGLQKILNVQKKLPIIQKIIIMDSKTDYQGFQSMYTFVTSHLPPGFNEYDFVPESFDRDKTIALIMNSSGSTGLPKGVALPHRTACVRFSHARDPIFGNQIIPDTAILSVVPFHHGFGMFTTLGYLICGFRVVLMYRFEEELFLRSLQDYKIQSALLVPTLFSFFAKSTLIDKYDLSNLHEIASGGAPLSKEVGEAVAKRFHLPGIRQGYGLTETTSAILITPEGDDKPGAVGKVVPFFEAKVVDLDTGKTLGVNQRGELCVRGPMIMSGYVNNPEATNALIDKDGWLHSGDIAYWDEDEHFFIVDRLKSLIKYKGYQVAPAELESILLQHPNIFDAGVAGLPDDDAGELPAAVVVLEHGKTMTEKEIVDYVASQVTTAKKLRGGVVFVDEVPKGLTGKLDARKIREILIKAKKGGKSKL
Description: as §1, §2

[3] = molecular target: T1, CTCF 11 ZF DNA binding domain; test: EMSA; CpG methylation does not affect binding; conditions: tags: pET16b-11ZF construct, TnT reticulocyte lysate (Promega); label: 32P
Description: as §1
To confirm in vitro mapping results, four guanine residues within the predicted core sequence were selectively mutated, as indicated in FIG. 12. […] To determine if CTCF binding is methylation-dependent, gamma-satellite 8 PCR fragments were methylated with a SssI methyltransferase. […]

[4] = molecular target: T1, CTCF 11 ZF DNA binding domain; test: EMSA; among strongest binding; conditions: tags: pET16b-11ZF construct, TnT reticulocyte lysate (Promega); label: 32P
Description: as §1
Electrophoretic mobility shift assays (EMSA) were performed. A set of overlapping fragments corresponding to an 1′-mer of the human gamma 8, were radiolabeled and incubated with the in vitro translated 11 ZF DNA binding domain of the CTCF protein. Recombinant luciferase protein prepared by the same in vitro translation reaction was used as a negative control. […] The presence of CTCF-binding sites was also checked in the human alpha-satellite DNA array lacking anti-silencing (insulating) activity. None of 11 alpha-satellite monomers analyzed bound the CTCF protein in vitro.

[5] = molecular target: T1, CTCF 11 ZF DNA binding domain; test: footprint; methylation interference on fragment 11: seven contact guanines (3 sense, 4 antisense); 55 bp core of 100 bp fragment printed; conditions: tags: pET16b-11ZF construct, TnT reticulocyte lysate (Promega)
Description: as §1, with “Binding” for “Gamma-satellite monomers from human chromosome X and Y were PCR amplified from genomic DNA, cloned into TA vector and sequenced before their analysis by electrophoretic mobility gel-shift assay (EMSA). Binding”
To determine the contact guanine residues recognized by CTCF in gamma-satellite DNA, methylation interference assays (a method that identifies guanine residues in the CTCF binding site that make contact with CTCF zinc fingers) were conducted using a ³²P-labeled fragment of the gamma-satellite monomer (fragment #11). A strong interference of guanine methylation with CTCF-DNA binding was found in three and four guanine residues on sense and anti-sense strands, respectively (FIG. 5B). […]

[6] = molecular target: T1, CTCF 11 ZF DNA binding domain; test: EMSA; mutation knocked down binding; conditions: tags: pET16b-11ZF construct, TnT reticulocyte lysate (Promega)
Description: as §1
To confirm in vitro mapping results, four guanine residues within the predicted core sequence were selectively mutated, as indicated in FIG. 12. […] To determine if CTCF binding is methylation-dependent, gamma-satellite 8 PCR fragments were methylated with a SssI methyltransferase. […] It is worth noting that in most previously reported cases, methylation prevents CTCF binding (Ohlsson et al., Trends Genet., 17:520-527, 2001).

Row | Binder | binding result [4] | binding result [6] | further results
1 | B1 |  |  | binding result [1]: binds; binding result [2]: no binding
2 | B2 |  |  | binding result [3]: binds
3 | B3 | binds |  | 
4 | B4 |  |  | binding result [5]: binds
5 | B5 |  | no binding | 
6 | B6 |  | no binding | 
7 | B7 |  | no binding | 
8 | B8 | binds |  | 
9 | B9 | binds |  | 
10 | B10 | binds |  | 
